Measured values: patent publication US20060233785A1, “Immunointeractive molecules and uses thereof” (priority 2001, published 2006)

What was measured:
[1] = system: latex-specific serum IgE; assay: ELISA detecting latex-specific serum IgE (Example 3); type: binding, human; settings: ten latex-allergic patients; serum 1:10
Method: FIG. 3 is a graphical representation of an ELISA detecting latex-specific serum IgE. ELISA plates were coated with 10 μg/ml rHev b 6 and glove extract, blocked with skim milk powder and incubated with patient (P1-10) and non-allergic control serum (NA1-6) diluted 1:10. Antibody binding was detected by incubation with rabbit anti-human IgE, swine anti-rabbit immunoglobulines-HRP and o-phenylenediamine as substrate. Mean values+SD for triplicate wells are shown. The cut-off for positive was 2 SD above the mean OD of non-allergic subjects for rHev b 6 (dotted line) and glove extract (black line).
Hybridoma supernatants were tested for reactivity to rHev b 6, glove extract and Hev b 6 peptides by ELISA using an established protocol (Sutherland et al., 2002, supra). Patient serum samples were tested for latex-specific IgE using a similar ELISA protocol with rabbit anti-human IgE (1/1000) and swine anti-rabbit immunoglobulins-horseradish peroxidase conjugate (1/1000). Monoclonal antibody isotypes were determined using a mouse immunoglobulin isotyping ELISA kit (BD Biosciences, San Diego, Calif., USA).

[2] = system: rHev b 6-specific serum IgE; assay: Immunoblotting detecting rHev b 6-specific serum IgE (Example 3); type: binding, human; settings: sera from patients 1, 4 and 5; prohevein band around 20 kDa
Method: FIG. 4 is an image of immunoblotting detecting rHev b 6-specific serum IgE. rHev b 6 was subjected to electrophoresis under reducing conditions on a 16% SDS PAGE minigel and transferred to a nitrocellulose membrane. After blocking with skim milk powder, the membrane was incubated with serum from latex allergic and non-allergic subjects (1:5 dilution). Antibody binding was detected by incubation with rabbit anti-human IgE, swine anti-rabbit immunoglobulins-HRP and 4-chloro-1-naphthol as substrate. M: molecular mass markers; C: Coomassie-stained gel; lane 1: 1A5.4.3 monoclonal antibody; lane 2: P1 serum; lane 3: P4 serum; lane 4: P5 serum; lane 5: non-latex-allergic serum; lane 6: no serum.
Hybridoma supernatants and patient sera were tested for reactivity with LAL, NAL, glove extract, rHev b 6 and hevein by 16% SDS-PAGE and immunoblotting as described previously (Sutherland et al., 2002, supra).

B1: rHev b 6: recombinant Hev b 6 (prohevein) expressed in E. coli from pPROEX-HTa with 6-His tag (protein)
chain: EQCGRQAGGKLCPNNLCCSQWGWCGSTDEYCSPDHNCQSNCKDSGEGVGGGSASNVLATYHLYNSQDHGWDLNAASAYCSTWDANKPYSWRSKYGWTAFCGPVGAHGQSSCGKCLSVTNTGTGAKTTVRIVDQCSNGGLDLDVNVFRQLDTDGKGYERGHITVNYQFVDCGDSFNPLFSVMKSSVIN
modifications: left off: small tags and cut ends
notes: recombinant Hev b 6 (prohevein) expressed in E. coli from pPROEX-HTa with 6-His tag
[1]
  number of latex-allergic patients with serum IgE binding by ELISA: eight
[2]
  serum IgE reactivity by Western blotting: all showed reactivity
